Results as given in the RNAGym collection of RNA variant scans (doi:10.1093/molbev/msab373).

B1: Azoarcus group I ribozyme (parent)
chain: GUGCCUUGCGCCGGGAAACCACGCAAGGGAUGGUGUCAAAUUCGGCGAAACCUAAGCGCCCGCCCGGGCGUAUGGCAACGCCGAGCCAAGCUUCGGCGCCUGCGCCGAUGAAGGUGUAGAGACUAGACGGCACCCACCUAAGGCAAACGCUAUGGUGAAGGCAUAGUCCAGGGAGUGGCGAAAGUCACACAAACCGG

Variants of: B1
Test: reverse-splicing fitness (ratio to wild type); higher = more active; in vitro selection; Mg2+ level not given
How it was run: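 An in vitro group I ribozyme library with randomized positions was T7-transcribed and gel-purified. In triplicate, 10 pmol RNA in EPPS pH 7.5 was reacted with 50 pmoles of a 30-nt RNA substrate for 1 h at 37 °C across several added MgCl2 levels (1–48 mM), then stopped with EDTA. Products were reverse transcribed from a substrate-complementary primer, PCR-amplified and sequenced (HiSeq 4000). Fitness is a variant's read proportion after selection over that before, normalised to wild type.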
In the case of GUGCCUUGCGCCGGGAAACCACGCAAGGGAUGGUGUCAAAUUCGGCGAAACCUAAGCGCCCGCCCGGGCGUAUGGCAACGCCGAGCCAAGCUUCGGCGCCUGCGCCGAUGCAGGUGUAGCGACUAGACGGCACCCACCUAAGGCGAACGCUAUGGUGAAGGCAUAGUCGAGGGAGAGGCGAAAGUCACACAAACCGG, the reverse-splicing fitness is reported as 0.0201. In the case of GUGCCUUGCGCCGGGAAACCACGCAAGGGAUGGUGUCAAAUUCGGCGAAACCUAAGCGCCCGCCCGGGCGUAUGGCAACGCCGAGCCAAGCUUCGGCGCCUGCGCCGAUGCAGGUGUAGCGACUAGACGGCACCCACCUAAGGCGAACGCUAUGGUGAAGGCAUAGUCGAGGGAGCGGCGAAAGUCACACAAACCGG, the reverse-splicing fitness is reported as 0.0244. Variant GUGCCUUGCGCCGGGAAACCACGCAAGGGAUGGUGUCAAAUUCGGCGAAACCUAAGCGCCCGCCCGGGCGUAUGGCAACGCCGAGCCAAGCUUCGGCGCCUGCGCCGAUGCAGGUGUAGCGACUAGACGGCACCCACCUAAGGCGAACGCUAUGGUGAAGGCAUAGUCGAGGGAGGGGCGAAAGUCACACAAACCGG has a reverse-splicing fitness of 0.00588. For GUGCCUUGCGCCGGGAAACCACGCAAGGGAUGGUGUCAAAUUCGGCGAAACCUAAGCGCCCGCCCGGGCGUAUGGCAACGCCGAGCCAAGCUUCGGCGCCUGCGCCGAUGCAGGUGUAGCGACUAGACGGCACCCACCUAAGGCGAACGCUAUGGUGAAGGCAUAGUCUAGGGAGUGGCGAAAGUCACACAAACCGG, the reverse-splicing fitness was 0.184. With GUGCCUUGCGCCGGGAAACCACGCAAGGGAUGGUGUCAAAUUCGGCGAAACCUAAGCGCCCGCCCGGGCGUAUGGCAACGCCGAGCCAAGCUUCGGCGCCUGCGCCGAUGCAGGUGUAGCGACUAGACGGCACCCACCUAAGGCGAACGCUAUGGUGAAGGCAUAGUCUAGGGAGAGGCGAAAGUCACACAAACCGG the reverse-splicing fitness was 0.033. In the case of GUGCCUUGCGCCGGGAAACCACGCAAGGGAUGGUGUCAAAUUCGGCGAAACCUAAGCGCCCGCCCGGGCGUAUGGCAACGCCGAGCCAAGCUUCGGCGCCUGCGCCGAUGCAGGUGUAGCGACUAGACGGCACCCACCUAAGGCGAACGCUAUGGUGAAGGCAUAGUCUAGGGAGCGGCGAAAGUCACACAAACCGG, the reverse-splicing fitness is reported as 0.0425. Work on GUGCCUUGCGCCGGGAAACCACGCAAGGGAUGGUGUCAAAUUCGGCGAAACCUAAGCGCCCGCCCGGGCGUAUGGCAACGCCGAGCCAAGCUUCGGCGCCUGCGCCGAUGCAGGUGUAGCGACUAGACGGCACCCACCUAAGGCGAACGCUAUGGUGAAGGCAUAGUCUAGGGAGGGGCGAAAGUCACACAAACCGG yielded a reverse-splicing fitness of 0.00591. Variant GUGCCUUGCGCCGGGAAACCACGCAAGGGAUGGUGUCAAAUUCGGCGAAACCUAAGCGCCCGCCCGGGCGUAUGGCAACGCCGAGCCAAGCUUCGGCGCCUGCGCCGAUGCAGGUGUAGCGACUAGACGGCACCCACCUAAGGCGAACGCUAUGGUGAAGGCAUAGUCCAGGGAGAGGCGAAAGUCACACAAACCGG has a reverse-splicing fitness of 0.19. GUGCCUUGCGCCGGGAAACCACGCAAGGGAUGGUGUCAAAUUCGGCGAAACCUAAGCGCCCGCCCGGGCGUAUGGCAACGCCGAGCCAAGCUUCGGCGCCUGCGCCGAUGCAGGUGUAGCGACUAGACGGCACCCACCUAAGGCGAACGCUAUGGUGAAGGCAUAGUCCAGGGAGCGGCGAAAGUCACACAAACCGG showed a reverse-splicing fitness of 0.203. GUGCCUUGCGCCGGGAAACCACGCAAGGGAUGGUGUCAAAUUCGGCGAAACCUAAGCGCCCGCCCGGGCGUAUGGCAACGCCGAGCCAAGCUUCGGCGCCUGCGCCGAUGCAGGUGUAGCGACUAGACGGCACCCACCUAAGGCGAACGCUAUGGUGAAGGCAUAGUCCAGGGAGGGGCGAAAGUCACACAAACCGG showed a reverse-splicing fitness of 0.0393. GUGCCUUGCGCCGGGAAACCACGCAAGGGAUGGUGUCAAAUUCGGCGAAACCUAAGCGCCCGCCCGGGCGUAUGGCAACGCCGAGCCAAGCUUCGGCGCCUGCGCCGAUGCAGGUGUAGCGACUAGACGGCACCCACCUAAGGCUAACGCUAUGGUGAAGGCAUAGUCCAGGGAGUGGCGAAAGUCACACAAACCGG showed a reverse-splicing fitness of 0.589. Work on GUGCCUUGCGCCGGGAAACCACGCAAGGGAUGGUGUCAAAUUCGGCGAAACCUAAGCGCCCGCCCGGGCGUAUGGCAACGCCGAGCCAAGCUUCGGCGCCUGCGCCGAUGCAGGUGUAGCGACUAGACGGCACCCACCUAAGGCUAACGAUAUGGUGAAGGCAUAGUCCAGGGAGUGGCGAAAGUCACACAAACCGG yielded a reverse-splicing fitness of 0.0648. For GUGCCUUGCGCCGGGAAACCACGCAAGGGAUGGUGUCAAAUUCGGCGAAACCUAAGCGCCCGCCCGGGCGUAUGGCAACGCCGAGCCAAGCUUCGGCGCCUGCGCCGAUGCAGGUGUAGCGACUAGACGGCACCCACCUAAGGCUAACGAUAUGGUGAAGGCAUAGUCAAGGGAGUGGCGAAAGUCACACAAACCGG, the reverse-splicing fitness was 0.00839. In the case of GUGCCUUGCGCCGGGAAACCACGCAAGGGAUGGUGUCAAAUUCGGCGAAACCUAAGCGCCCGCCCGGGCGUAUGGCAACGCCGAGCCAAGCUUCGGCGCCUGCGCCGAUGCAGGUGUAGCGACUAGACGGCACCCACCUAAGGCUAACGAUAUGGUGAAGGCAUAGUCAAGGGAGAGGCGAAAGUCACACAAACCGG, the reverse-splicing fitness is reported as 0.0108. With GUGCCUUGCGCCGGGAAACCACGCAAGGGAUGGUGUCAAAUUCGGCGAAACCUAAGCGCCCGCCCGGGCGUAUGGCAACGCCGAGCCAAGCUUCGGCGCCUGCGCCGAUGCAGGUGUAGCGACUAGACGGCACCCACCUAAGGCUAACGAUAUGGUGAAGGCAUAGUCAAGGGAGCGGCGAAAGUCACACAAACCGG the reverse-splicing fitness was 0.0085.
